Experimental data reported in US7135319 (Pfizer, dated 2006).

Molecular target: T1, B. subtilis Acyl Carrier Protein Synthase (ACPS), holo-[acyl carrier protein] synthase (B. subtilis, UniProt P96618 3-121, limits assumed)
T1 construct: A trimer of ACPS was the molecular replacement probe; three ACPS molecules per asymmetric unit; also called A1; B1
T1 sequence: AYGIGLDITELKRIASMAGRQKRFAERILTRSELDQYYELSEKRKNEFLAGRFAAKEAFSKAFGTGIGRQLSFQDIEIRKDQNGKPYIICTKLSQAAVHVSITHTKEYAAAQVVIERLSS
Test: gel filtration of the mixed proteins, complex purified and crystallized
Procedure: Crystallization of ACPS with ACP Purified ACP and ACPS were mixed at a 1:1.1 molar ratio and the mixture was loaded onto a gel filtration column. The resulting purified complex was dialyzed against a solution containing 50 mM Bis-Tris pH 6.4, 100 mM NaCl, 10 mM MgCl_2, and 10 mM DTT before concentrating the complex to ~10 mg/mL. Crystallization conditions for the ACP/ACPS complex were also determined using the sparse matrix screens available from both Hampton Research and Emerald Biostructures. Screens were set up with 2 μL drops at both 18° C. and 4° C. Optimization of a crystalline hit (0.2M Potassium Formate, 20% PEG 3350) gave diffraction quality rod shaped crystals. Crystals could be obtained between 0.15M and 0.3M Potassium Formate and between 15 and 23% PEG 3350. The rate of growth seriously affected the quality of crystals with the optimal crystals being formed between 8 and 12 days after setup. The crystals were grown with a 1:2 drop ratio of protein to well solution at 18° C. These crystals belonged to space group C222_1 with unit cell parameters a=78.46, b=122.03, c=136.77 Å and contained three molecules of ACPS and three molecules of ACP in the asymmetric unit.

binding result: binds
B1: B. subtilis Acyl Carrier Protein (ACP), holo form (other)
chain: GPLGSADTLERVTKIIVDRLGVDEADVKLEASFKEDLGADSLDVVELVMELEDEFDMEISDEDAEKIATVGDAVNYIQNQQ
modifications: phosphopantetheinyl group attached to the O-gamma of Ser-36
notes: also called holo-ACP; AP1
